Reference: patent US20250353911A1 (INHIBRX BIOSCIENCES, published 2025)

Assays:
[1] = target: T1, human FcRn extracellular domain (ECD) fused to a transmembrane domain and an intracellular citrine, with … (human); test: flow cytometry, HEK 293 cells transiently expressing human FcRn ECD-TM-citrine and B2M, pH 6; blocked ligand: biotinylated human IgG at 1 µM, detected with streptavidin-AF647
T1 construct: also called human FcRn overexpressed on CHO cells; FcRn transfected CHO cells
Protocol: 50,000 transiently transfected HEK 293 cells were plated in 96-well plates and resuspended in 20 mM His, 150 mM NaCl, pH 6. Serial dilutions of test articles were prepared at 2× the final concentration in the buffer described above and added to the cell suspensions. Plates were incubated for 60 minutes at 4° C. […] Cells were then washed in the buffer described above and subsequently incubated for 30 minutes at 4° C. with a fluorescently labeled (AF647) streptavidin to detect IgG binding to FcRn. Binding of streptavidin to cells expressing FcRn (citrine positive) was measured after a final wash using an iQue Screener (Sartorius). The data were plotted and analyzed using GraphPad Prism analysis software.

[2] = target: T2, human FcRn/B2m heterodimer protein (human, UniProt P55899 24-297; P61769 21-119, limits assumed); test: ELISA on coated human FcRn/B2m heterodimer, pH 7.4, HRP detection antibody, A450
T2 construct: also called FcRn (ELISA)
Protocol: 96-well ELISA plates were coated with human FcRn/B2m heterodimer protein in PBS overnight at 4° C., washed with PBST and then blocked with 3% BSA in PBST for 1 h at RT. Serial dilutions of test articles were prepared in PBST pH 7.4 and added to the plates. Plates were incubated for 1 h at room temperature. After the incubation cells were washed in the PBST and then incubated for 1 h at room temperature with a horse radish peroxidase (HRP)-conjugated antibody detecting the polypeptides. Plates were washed with PBS-T followed by addition of TMB substrate and color allowed to develop. TMB substrate was stopped with an equal volume of stop solution (1M H₂SO₄). Absorbance at 450 nm was measured with a 96 well plate reader (Emax, Molecular Devices). All data were plotted and analyzed using GraphPad Prism analysis software.

[3] = target: T1, human FcRn extracellular domain (ECD) …; test: flow cytometry, CHO cells transiently expressing human FcRn ECD-TM-citrine and B2M, pH 7.4, AF647 detection antibody
Protocol: (§1) Binding of anti-FcRn VHH polypeptides to human FcRn at neutral (7.4) or endosomal (6) pH was tested by flow cytometry using a CHO-based overexpression system or isolated human peripheral blood mononuclear cells (PBMC).
(§2) CHO cells were plated in 96-well plates at 50,000 cells per well and resuspended in PBS, pH 7.4 or a buffer containing 20 mM His, 150 mM NaCl, pH 6. Serial dilutions of test articles were prepared at 2× the final concentration in the buffers described above (pH 7.4 or pH 6) and added to the cell suspensions. Plates were incubated for 60 minutes at 4° C. After the incubation cells were washed in the respective buffer and then incubated for 30 minutes at 4° C. with a fluorescently labeled (AF647) antibody detecting the VHH polypeptides. Binding of the detection antibody to FcRn on transfected cells (citrine positive) was measured after a final wash using an iQue Screener (Sartorius).

[4] = target: T3, Human serum albumin (HSA) (human, UniProt P02768 25-609); test: ELISA on coated human albumin, pH 7.4, HRP detection antibody, A450
T3 construct: also called human albumin; recombinant human albumin
T3 sequence (P02768 25-609): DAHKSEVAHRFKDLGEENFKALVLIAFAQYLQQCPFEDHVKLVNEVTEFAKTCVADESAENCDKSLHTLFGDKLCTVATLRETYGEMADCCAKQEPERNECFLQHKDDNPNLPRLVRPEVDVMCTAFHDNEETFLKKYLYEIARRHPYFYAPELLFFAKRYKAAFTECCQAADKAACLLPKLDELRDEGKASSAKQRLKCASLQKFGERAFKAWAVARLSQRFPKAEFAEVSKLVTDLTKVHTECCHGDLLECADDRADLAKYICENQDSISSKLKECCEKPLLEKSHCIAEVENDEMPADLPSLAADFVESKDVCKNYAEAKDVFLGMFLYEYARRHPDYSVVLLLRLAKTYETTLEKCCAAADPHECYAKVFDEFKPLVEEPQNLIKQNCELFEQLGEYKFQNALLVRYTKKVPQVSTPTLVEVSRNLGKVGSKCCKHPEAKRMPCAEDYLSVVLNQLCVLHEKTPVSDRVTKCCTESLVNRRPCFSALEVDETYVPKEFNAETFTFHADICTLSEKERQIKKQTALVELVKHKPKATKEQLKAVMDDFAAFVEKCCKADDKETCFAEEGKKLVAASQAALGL
Protocol: (§3) 96-well ELISA plates were coated with albumin protein in PBS overnight at 4° C., washed with PBS-T and then blocked with 5% milk powder in PBS-T for 1 h at room temperature. Serial dilutions of test articles were prepared in PBS pH 7.4 or a buffer containing 20 mM His, 150 mM NaCl, pH 5.5 and added to the plates. Plates were incubated for 1 h at room temperature. After the incubation cells were washed in the respective buffer and then incubated for 30 min at room temperature with a HRP-conjugated antibody detecting the polypeptides. Plates were washed in their respective buffers and TMB substrate was added and color allowed to develop. TMB substrate was stopped with an equal volume of stop solution (1M H₂SO₄). Absorbance at 450 nm was measured with a 96 well plate reader.

[5] = target: T1, human FcRn extracellular domain (ECD) …; test: flow cytometry, CHO cells transiently expressing human FcRn ECD-TM-citrine and B2M, pH 6, AF647 detection antibody
Protocol: as §1, §2

[6] = target: T3, Human serum albumin (HSA); test: ELISA on coated human albumin, anti-human Fc HRP, A650, one site-total binding fit
Protocol: (§4) Medisorp plates were coated with albumin protein at 2 μg/ml, 50 μl/well at 4° C. overnight (human, murine, and rat albumin-Sigma, cynomolgus monkey albumin-Abcam). 1× Fish Gelatin (blocking agent, Bethyl Laboratories) was added to albumin-coated wells followed by a 1 hour incubation at RT. Titrations of sdAb fusion proteins (starting at 100 nM, across 1:3 or down 1:4) were added and incubated for 1 hour at RT. Plates were washed 3 times with 0.1% D-PBST, and then anti-human Fc HRP antibody (1:2000 in 0.1% D-PBST, Jackson) was added and incubated for 30 minutes at RT. Plates were washed 3 times with 0.1% D-PBST, and then TMB substrate was added. Absorbance at 650 nm was read on a plate reader (Molecular Devices) and data were plotted using equation one site-total binding (Model: Y=Bmax*X/(Kd+X)+NS*X+Background, GraphPad Prism).

[7] = target: T4, Cynomolgus monkey serum albumin (CSA) (cynomolgus monkey, UniProt A2V9Z4 25-608); test: ELISA on coated cynomolgus monkey albumin, anti-human Fc HRP, A650, one site-total binding fit
T4 construct: Bought protein (Abcam); also called cynomolgus monkey albumin
T4 sequence (A2V9Z4 25-608): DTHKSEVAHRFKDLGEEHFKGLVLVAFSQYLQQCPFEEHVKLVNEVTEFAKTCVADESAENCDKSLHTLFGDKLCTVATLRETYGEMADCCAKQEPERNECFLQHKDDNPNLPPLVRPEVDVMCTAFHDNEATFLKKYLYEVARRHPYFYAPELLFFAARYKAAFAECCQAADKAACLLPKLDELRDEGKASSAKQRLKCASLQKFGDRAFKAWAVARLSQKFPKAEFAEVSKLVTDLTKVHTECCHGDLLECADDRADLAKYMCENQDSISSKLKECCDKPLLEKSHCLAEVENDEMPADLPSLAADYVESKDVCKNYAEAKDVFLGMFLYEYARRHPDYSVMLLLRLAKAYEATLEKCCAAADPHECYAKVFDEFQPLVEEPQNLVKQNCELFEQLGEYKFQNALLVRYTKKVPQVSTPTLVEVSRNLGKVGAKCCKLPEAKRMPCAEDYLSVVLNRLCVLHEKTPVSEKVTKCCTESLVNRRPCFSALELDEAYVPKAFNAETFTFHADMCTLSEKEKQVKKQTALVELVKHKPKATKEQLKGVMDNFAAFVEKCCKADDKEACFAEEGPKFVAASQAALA
Protocol: as §4

[8] = target: T5, Murine serum albumin (MSA) (mouse, UniProt P07724 25-608); test: ELISA on coated murine albumin, anti-human Fc HRP, A650, one site-total binding fit
T5 construct: Bought protein (Sigma); also called murine albumin; mouse albumin
Protocol: as §4

Rat serum albumin (RSA) [9] = target: T6, Rat serum albumin (RSA) (rat, UniProt P02770 25-608); test: ELISA, albumin coated, sdAb fusion titrated, anti-human Fc HRP
T6 construct: Bought protein (Sigma); also called rat albumin
T6 sequence (P02770 25-608): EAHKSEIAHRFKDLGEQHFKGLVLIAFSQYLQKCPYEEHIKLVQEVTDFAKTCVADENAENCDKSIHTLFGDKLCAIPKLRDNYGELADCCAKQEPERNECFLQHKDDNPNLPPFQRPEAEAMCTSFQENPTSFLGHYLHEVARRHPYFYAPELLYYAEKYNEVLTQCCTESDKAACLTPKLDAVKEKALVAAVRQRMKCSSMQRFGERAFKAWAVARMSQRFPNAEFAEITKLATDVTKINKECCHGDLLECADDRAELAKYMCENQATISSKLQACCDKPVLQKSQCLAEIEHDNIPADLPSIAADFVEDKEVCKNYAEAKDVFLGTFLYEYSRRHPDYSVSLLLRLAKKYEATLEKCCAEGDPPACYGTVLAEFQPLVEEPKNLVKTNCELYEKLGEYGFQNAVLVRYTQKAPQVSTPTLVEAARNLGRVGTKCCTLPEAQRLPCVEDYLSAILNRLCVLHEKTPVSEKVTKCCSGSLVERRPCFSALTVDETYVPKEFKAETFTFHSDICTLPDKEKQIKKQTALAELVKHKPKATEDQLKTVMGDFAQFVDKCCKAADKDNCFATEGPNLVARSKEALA
Protocol: as §4

[10] = target: T5, Murine serum albumin (MSA); test: as above
Protocol: as §4

[11] = target: T3, Human serum albumin (HSA); test: as above
Protocol: as §4

[12] = target: T4, Cynomolgus monkey serum albumin (CSA); test: as above
Protocol: as §4

Rat serum albumin (RSA) [13] = target: T6, Rat serum albumin (RSA); test: ELISA on coated rat albumin, anti-human Fc HRP, A650, one site-total binding fit
Protocol: as §4

[14] = target: T7, human FcRn on primary human monocytes (PBMC) (human, UniProt P55899 24-365; P16213 21-119); test: flow cytometry, fixed and permeabilized human PBMC, gated monocytes, pH 7.4, AF647 detection antibody
T7 construct: Endogenous FcRn (with endogenous beta-2 microglobulin) in fixed and permeabilized human PBMC; also called FcRn-expressing human monocytes; FcRn on PBMC subpopulations
Protocol: (§5) Isolated human PBMC were plated in 96-well plates at 120,000 cells per well and washed with PBS, pH 7.4. Cells were stained with Zombie Aqua to exclude dead cells and with specific fluorescently labeled antibodies against surface lineage markers (CD14, CD16, CD3, CD56, CD19 and HLA-DR) to allow gating on different PBMC subpopulations. After the surface marker staining, cells were fixed and permeabilized using a Foxp3/Transcription Factor Fixation/Permeabilization kit (eBioscience™) according to the manufacturer's recommended protocol. Cells were then resuspended in the buffers described above to generate pH 7.4 or pH 6 conditions and test article staining was carried out as described for CHO cells. After the final wash, binding to FcRn on PBMC subpopulations (Monocytes, B cells or T cells) was measured on a Novocyte-Quanteon Flow Cytometer (Agilent).

[15] = target: T1, human FcRn extracellular domain (ECD) …; test: flow cytometry, CHO cells transiently expressing human FcRn ECD-TM-citrine and B2M, pH 6, AF647 detection antibody; remark: listed apart in the source
Protocol: as §1, §2

[16] = target: T7, human FcRn on primary human monocytes …; test: flow cytometry, fixed and permeabilized human PBMC, gated monocytes, pH 6, AF647 detection antibody
Protocol: as §5

[17] = target: T3, Human serum albumin (HSA); test: ELISA on coated human albumin, pH 5.5, HRP detection antibody, A450
Protocol: as §3

[18] = target: T1, human FcRn extracellular domain (ECD) …; test: flow cytometry, CHO cells transiently expressing human FcRn ECD-TM-citrine and B2M, pH 7.4, AF647 detection antibody; remark: listed apart in the source
Protocol: as §1, §2

[19] = target: T3, Human serum albumin (HSA); test: ELISA on coated human albumin, pH 5.5, HRP detection antibody, A450; remark: listed apart in the source
Protocol: as §3

[20] = target: T3, Human serum albumin (HSA); test: ELISA on coated human albumin, pH 7.4, HRP detection antibody, A450; remark: listed apart in the source
Protocol: as §3

B1: cx11385 (B10a.v1 VHH x B10a.v1 VHH x hz4A01v51 VHH) (bispecific antibody)
chain: EVQLLESGGGEVQPGGSLRLSCTASGSIANVDMMAWHRQAPGKQREPIAVINDGGSTSYADSVKGRFTISRDNAKNTLYLQMSSLRAEDTAVYYCNTATWRGGERYADWGQGTLVTVKPGSGGGSEVQLLESGGGEVQPGGSLRLSCTASGSIANVDMMAWHRQAPGKQREPIAVINDGGSTSYADSVKGRFTISRDNAKNTLYLQMSSLRAEDTAVYYCNTATWRGGERYADWGQGTLVTVKPGSGGGSEVQLVESGGGEVQPGGSLRLSCAASGFTFSTSGMVWVRQAPGKGLEWVSTISDDARITVYAESVKGRFTISRDNAKNTVYLQMNSLRAEDTAVYYCATYRAGSRIGSYEDYYRGQGTLVTVKPGG
In the case of B1, the “IC50 (read off the curve)” value [1] is reported as about 3 nM and the “EC50 (read off the curve)” value [2] is reported as about 0.07 nM.

B2: cx12032 (B10a.v2.1 VHH x hz4A01v51 VHH) (bispecific antibody)
chain: EVQLLESGGGEVQPGGSLRLSCAASGSIANVDLMAWHRQAPGKQREPIAVINDAGSTYYAESVKGRFTISRDNAKNTLYLQMNSLRAEDTAVYYCNTATWRGGERYADWGQGTLVTVKPEVQLVESGGGEVQPGGSLRLSCAASGFTFSTSGMVWVRQAPGKGLEWVSTISDDARITVYAESVKGRFTISRDNAKNTVYLQMNSLRAEDTAVYYCATYRAGSRIGSYEDYYRGQGTLVTVKPGG
In the case of B2, the “EC50 (read off the curve)” value [3] is reported as about 0.5 nM, the “EC50 (read off the curve)” value [4] is reported as about 0.3 nM and the “EC50 (read off the curve)” value [5] is reported as about 0.6 nM.

B3: cx5009 (hz4A01v51-NNT-hFc) (Fc fusion)
chain: EVQLVESGGGEVQPGGSLRLSCAASGFTFSTSGMVWVRQAPGKGLEWVSTISDDARITVYAESVKGRFTISRDNAKNTVYLQMNSLRAEDTAVYYCATYRAGSRIGSYEDYYRGQGTLVTVKPGGGGPSVFLFPPKPKDTLMISRTPEVTCVVVDVSHEDPEVKFNWYVDGVEVHNAKTKPREEQYNSTYRVVSVLTVLHQDWLNGKEYKCKVSNKALPAPIEKTISKAKGQPREPQVYTLPPSRDELTKNQVNLTCLVKGFYPSDIAVEWESNGQPENNYKTTPPVLDSDGSFFLNSTLTVDKSRWQQGNVFSCSVMHEALHNHYTQKSLSLSPGSGGGGSGGGGS
notes: also called humanized hz4A01v51; hx4A01v51
A Kd [6] of 0.195 nM, a Kd [7] of 0.189 nM and a Kd [8] of 0.207 nM were found for B3 in this work. It also gave a Kd (Rat serum albumin (RSA) [9]) of under 0.3 nM, a maximal binding (Rat serum albumin (RSA) [9]) of over 90% and a Kd [10] of under 0.3 nM. It also gave a maximal binding [10] of over 90%, a Kd [11] of under 0.3 nM and a maximal binding [11] of over 90%. It also gave a Kd [12] of under 0.3 nM, a maximal binding [12] of over 90% and a Kd (Rat serum albumin (RSA) [13]) of 0.234 nM.

B4: cx11558 (B10a.v2.1 VHH x hz4A01v51 VHH) (bispecific antibody)
chain: EVQLLESGGGEVQPGGSLRLSCAASGSIANVDLMAWHRQAPGKQREPIAVINDAGSTYYAESVKGRFTISRDNAKNTLYLQMNSLRAEDTAVYYCNTATWRGGERYADWGQGTLVTVKPGSGGGSEVQLVESGGGEVQPGGSLRLSCAASGFTFSTSGMVWVRQAPGKGLEWVSTISDDARITVYAESVKGRFTISRDNAKNTVYLQMNSLRAEDTAVYYCATYRAGSRIGSYEDYYRGQGTLVTVKPGG
With B4 the “EC50 (read off the curve)” value [14] was about 4 nM, the “EC50 (read off the curve)” value [3] was about 0.5 nM and the “EC50 (read off the curve)” value [15] was about 0.4 nM. For the same binder, the “EC50 (read off the curve)” value [4] was about 0.3 nM, the “EC50 (read off the curve)” value [5] was about 0.4 nM and the “EC50 (read off the curve)” value [16] was about 5 nM. For the same binder, the “EC50 (read off the curve)” value [17] was about 0.06 nM, the “EC50 (read off the curve)” value [18] was about 0.5 nM and the “EC50 (read off the curve)” value [19] was about 0.06 nM.

B5: cx12007 (B10a.v2.4 VHH x hz4A01v51.12 VHH) (bispecific antibody)
chain: EVQLLESGGGKVQPGGSLRLSCAASGSIANVDLMAWHRQAPGKQREPIAVINDAGSTYYAESVKGRFTISRDNAKNTLYLQMNSLRAEDTAVYYCNTATWRGGERYADWGQGTLVTVEPGSGGGSEVQLLESGGGKVQPGGSLRLSCAASGFTFSTSGMVWVRQAPGKGLEWVSTISDDARITVYAESVKGRFTISRDNAKNTVYLQMNSLRAEDTAVYYCATYRAGSRIGSYEDYYRGQGTLVTVEPGG
For B5, the “EC50 (read off the curve)” value [15] was about 0.4 nM, the “EC50 (read off the curve)” value [20] was about 0.4 nM and the “EC50 (read off the curve)” value [17] was about 0.4 nM. The “EC50 (read off the curve)” value [18] was about 0.3 nM.

B6: cx11383 (B10a.v1 VHH x hz4A01v51 VHH) (bispecific antibody)
chain: EVQLLESGGGEVQPGGSLRLSCTASGSIANVDMMAWHRQAPGKQREPIAVINDGGSTSYADSVKGRFTISRDNAKNTLYLQMSSLRAEDTAVYYCNTATWRGGERYADWGQGTLVTVKPGSGGGSEVQLVESGGGEVQPGGSLRLSCAASGFTFSTSGMVWVRQAPGKGLEWVSTISDDARITVYAESVKGRFTISRDNAKNTVYLQMNSLRAEDTAVYYCATYRAGSRIGSYEDYYRGQGTLVTVKPGG
With B6 the “IC50 (read off the curve)” value [1] was about 7 nM and the binding result [2] was “binds”.

B7: cx12008 (bispecific antibody)
single polypeptide, format of FIG. 5(i): EVQLLESGGGEVQPGGSLRLSCAASGSIANVDLMAWHRQAPGKQREPIAVINDAGSTYYAESVKGRFTISRDNAKNTLYLQMNSLRAEDTAVYYCNTATWRGGERYADWGQGTLVTVRPGSGGGSEVQLVESGGGEVQPGGSLRLSCAASGFTFSTSGMVWVRQAPGKGLEWVSTISDDARITVYAESVKGRFTISRDNAKNTVYLQMNSLRAEDTAVYYCATYRAGSRIGSYEDYYRGQGTLVTVRPGG
notes: anti-FcRn VHH linked to anti-albumin VHH
With B7 the “EC50 (read off the curve)” value [15] was about 0.4 nM, the “EC50 (read off the curve)” value [20] was about 0.4 nM and the “EC50 (read off the curve)” value [17] was about 0.4 nM. The “EC50 (read off the curve)” value [18] was about 0.7 nM.

B8: cx12006 (bispecific antibody)
single polypeptide, format of FIG. 5(i): QVQLLESGGGKVQPGGSLRLSCAASGSIANVDLMAWHRQAPGKQREPIAVINDAGSTYYAESVKGRFTISRDNAKNTLYLQMNSLRAEDTAVYYCNTATWRGGERYADWGQGTLVTVEPGSGGGSQVQLLESGGGKVQPGGSLRLSCAASGFTFSTSGMVWVRQAPGKGLEWVSTISDDARITVYAESVKGRFTISRDNAKNTVYLQMNSLRAEDTAVYYCATYRAGSRIGSYEDYYRGQGTLVTVEPGG
notes: as for B7
With B8 the “EC50 (read off the curve)” value [15] was about 0.4 nM, the “EC50 (read off the curve)” value [20] was about 0.4 nM and the “EC50 (read off the curve)” value [17] was about 0.4 nM. For the same binder, the “EC50 (read off the curve)” value [18] was about 0.3 nM.
